Experimental data: patent US20090123479A1 (published 2009)
Changes are numbered by the printed parent chain.

T1: recombinant human IL-23 (human, UniProt Q9NPF7 20-189; P29460 23-328)
T1 construct: also called hIL-23
T1 sequence 1: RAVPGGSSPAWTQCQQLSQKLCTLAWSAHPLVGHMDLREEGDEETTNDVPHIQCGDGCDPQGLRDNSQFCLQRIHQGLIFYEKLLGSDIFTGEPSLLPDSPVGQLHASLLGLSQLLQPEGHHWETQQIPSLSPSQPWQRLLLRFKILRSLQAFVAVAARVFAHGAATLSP
T1 sequence 2: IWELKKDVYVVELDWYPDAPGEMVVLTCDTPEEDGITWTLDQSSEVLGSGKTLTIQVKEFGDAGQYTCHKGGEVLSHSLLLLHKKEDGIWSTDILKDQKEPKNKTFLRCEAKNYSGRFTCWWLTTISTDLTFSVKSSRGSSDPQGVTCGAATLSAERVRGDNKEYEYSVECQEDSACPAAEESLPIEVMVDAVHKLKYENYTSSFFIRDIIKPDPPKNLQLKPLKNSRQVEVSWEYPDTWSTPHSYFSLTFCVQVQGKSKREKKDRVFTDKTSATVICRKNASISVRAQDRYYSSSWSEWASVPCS

B1: A11.5M4 (antibody, V domains shown)
VH: QVQLVQSGAEVKKPGSSVKVSCKASGYTFASYGITWVRQAPGQGLEWMGENYPRSGNTYYNEKFKGRVTITADKSTSTAYMELSSLRSEDTAVYYCARAEFISTVVAPYYYALDYWGQGTLVTVSS
VL: DIVMTQSPDSLAVSLGERATINCKASKKVTIFGSTSALHWYQQKPGQPPKLIYNGAKPESGVPDRFSGSGSGTDFTLTISSLQAEDVAVYYCLQNKEVPYTFGGGTKVEIK
B2: A12M4 (antibody, V domains shown)
VH: B1 VH with V93M, A99V
VL: B1 VL
B3: A12.5M4 (antibody, V domains shown)
VH: B1 VH with A99V
VL: B1 VL
B4: A11M3 (antibody, V domains shown)
VH: B1 VH with V93M
VL: B1 VL with P58L
B5: A11M4 (antibody, V domains shown)
VH: B1 VH with V93M
VL: B1 VL
B6: A12M3 (antibody, V domains shown)
VH: B1 VH with V93M, A99V
VL: B1 VL with P58L

What follows are binders tested against T1, recombinant human IL-23 (assay: SPR (Biacore T100), tissue culture supernatant antibody captured on anti-human IgG, IL-23 analyte).
Method: Biacore analysis was carried out using a capture surface on a CM5 chip. Anti-human IgG (BR-1008-39) was used as the capturing agent. Anti-human IgG was coupled to a CM5 biosensor chip by primary amine coupling. Humanized antibody was captured on this immobilised surface and defined concentrations of IL-23 were passed over this captured surface. An injection of buffer over the captured antibody surface was used for double-referencing. […] T100 Biacore machine was used to generate the data; all runs were carried out at 25° C. using HBS EP. Data was analysed using the software inherent to the machine and fitted to the 1:1 model of binding. Tables 7 and 8 detail the IL-23 binding analysis carried out on the 8C92H6.HC1LC1 chimera and selected humanized variants in two separate experiments. […] The data shown for the humanized variants is representative of a number of runs. The chimeric mAb (8C9H6.HC1LC1) was only run once in each experiment, so data shown for this mAb is from that one run.
A Kd of 0.0665 nM, a koff of 9.62e-05 s⁻¹ and a kon of 1.45e+06 M⁻¹ s⁻¹ were found for B1 in this work. A Kd of 0.0553 nM, a koff of 0.000163 s⁻¹ and a kon of 2.94e+06 M⁻¹ s⁻¹ were found for B2 in this work. A Kd of 0.0483 nM, a koff of 0.000151 s⁻¹ and a kon of 3.12e+06 M⁻¹ s⁻¹ were found for B3 in this work. A Kd of 0.0671 nM, a koff of 9.57e-05 s⁻¹ and a kon of 1.43e+06 M⁻¹ s⁻¹ were found for B4 in this work. A Kd of 0.0444 nM, a koff of 9.18e-05 s⁻¹ and a kon of 2.07e+06 M⁻¹ s⁻¹ were found for B5 in this work. A Kd of 0.0794 nM, a koff of 0.000202 s⁻¹ and a kon of 2.54e+06 M⁻¹ s⁻¹ were found for B6 in this work.
